Data published in US20060115897A1.

Assays:
[1] = target: C3b (UniProt P01024); assay: cell-based or functional assay
[2] = target: C4b (UniProt P0C0L4); assay: cell-based or functional assay
C4b, sequence (P0C0L4 20-1744): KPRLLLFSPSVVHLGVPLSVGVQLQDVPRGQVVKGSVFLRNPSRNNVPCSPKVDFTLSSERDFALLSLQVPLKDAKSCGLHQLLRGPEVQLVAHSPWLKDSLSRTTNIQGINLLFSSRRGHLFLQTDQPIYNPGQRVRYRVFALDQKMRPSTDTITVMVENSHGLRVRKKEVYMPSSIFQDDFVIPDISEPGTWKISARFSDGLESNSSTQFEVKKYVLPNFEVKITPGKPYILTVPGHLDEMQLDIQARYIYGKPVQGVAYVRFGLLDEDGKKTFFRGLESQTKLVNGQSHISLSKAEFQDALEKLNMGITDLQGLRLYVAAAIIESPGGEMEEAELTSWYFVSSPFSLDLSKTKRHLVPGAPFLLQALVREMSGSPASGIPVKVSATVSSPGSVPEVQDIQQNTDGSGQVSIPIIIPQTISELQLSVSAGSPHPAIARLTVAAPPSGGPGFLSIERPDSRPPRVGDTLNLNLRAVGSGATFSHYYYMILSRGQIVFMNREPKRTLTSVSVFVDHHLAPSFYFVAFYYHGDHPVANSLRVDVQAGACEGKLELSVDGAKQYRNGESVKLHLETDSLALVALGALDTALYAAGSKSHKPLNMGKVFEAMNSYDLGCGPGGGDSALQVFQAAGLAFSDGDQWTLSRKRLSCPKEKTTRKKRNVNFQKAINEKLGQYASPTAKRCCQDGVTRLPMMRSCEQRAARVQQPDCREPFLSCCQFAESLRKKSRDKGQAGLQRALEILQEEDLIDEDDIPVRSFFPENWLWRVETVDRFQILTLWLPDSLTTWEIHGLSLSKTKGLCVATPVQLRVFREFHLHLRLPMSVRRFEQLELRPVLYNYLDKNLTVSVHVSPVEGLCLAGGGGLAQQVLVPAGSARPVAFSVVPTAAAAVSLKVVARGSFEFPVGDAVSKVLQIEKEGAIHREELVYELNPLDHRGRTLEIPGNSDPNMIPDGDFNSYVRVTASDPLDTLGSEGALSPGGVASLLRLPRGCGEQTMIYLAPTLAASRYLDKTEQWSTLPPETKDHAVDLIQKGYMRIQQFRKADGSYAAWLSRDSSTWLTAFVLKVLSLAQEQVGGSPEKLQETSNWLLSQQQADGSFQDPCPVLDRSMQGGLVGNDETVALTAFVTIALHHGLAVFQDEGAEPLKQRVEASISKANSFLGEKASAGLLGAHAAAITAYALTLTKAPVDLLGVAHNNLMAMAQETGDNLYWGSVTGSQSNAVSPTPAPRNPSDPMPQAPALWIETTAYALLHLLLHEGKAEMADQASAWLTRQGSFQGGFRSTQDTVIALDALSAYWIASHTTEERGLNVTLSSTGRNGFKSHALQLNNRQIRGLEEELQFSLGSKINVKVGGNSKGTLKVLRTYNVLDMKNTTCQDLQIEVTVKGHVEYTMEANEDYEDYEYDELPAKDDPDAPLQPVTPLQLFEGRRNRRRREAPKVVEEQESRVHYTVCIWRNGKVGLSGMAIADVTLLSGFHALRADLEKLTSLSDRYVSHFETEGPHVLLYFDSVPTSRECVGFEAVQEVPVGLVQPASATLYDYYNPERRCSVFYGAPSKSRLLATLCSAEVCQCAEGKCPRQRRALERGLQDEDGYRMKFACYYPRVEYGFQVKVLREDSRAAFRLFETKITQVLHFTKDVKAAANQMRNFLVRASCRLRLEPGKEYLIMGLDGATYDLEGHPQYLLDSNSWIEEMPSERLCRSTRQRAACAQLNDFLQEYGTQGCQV

C3b, sequence (P01024 749-1663 limits assumed, chain 1 of 2): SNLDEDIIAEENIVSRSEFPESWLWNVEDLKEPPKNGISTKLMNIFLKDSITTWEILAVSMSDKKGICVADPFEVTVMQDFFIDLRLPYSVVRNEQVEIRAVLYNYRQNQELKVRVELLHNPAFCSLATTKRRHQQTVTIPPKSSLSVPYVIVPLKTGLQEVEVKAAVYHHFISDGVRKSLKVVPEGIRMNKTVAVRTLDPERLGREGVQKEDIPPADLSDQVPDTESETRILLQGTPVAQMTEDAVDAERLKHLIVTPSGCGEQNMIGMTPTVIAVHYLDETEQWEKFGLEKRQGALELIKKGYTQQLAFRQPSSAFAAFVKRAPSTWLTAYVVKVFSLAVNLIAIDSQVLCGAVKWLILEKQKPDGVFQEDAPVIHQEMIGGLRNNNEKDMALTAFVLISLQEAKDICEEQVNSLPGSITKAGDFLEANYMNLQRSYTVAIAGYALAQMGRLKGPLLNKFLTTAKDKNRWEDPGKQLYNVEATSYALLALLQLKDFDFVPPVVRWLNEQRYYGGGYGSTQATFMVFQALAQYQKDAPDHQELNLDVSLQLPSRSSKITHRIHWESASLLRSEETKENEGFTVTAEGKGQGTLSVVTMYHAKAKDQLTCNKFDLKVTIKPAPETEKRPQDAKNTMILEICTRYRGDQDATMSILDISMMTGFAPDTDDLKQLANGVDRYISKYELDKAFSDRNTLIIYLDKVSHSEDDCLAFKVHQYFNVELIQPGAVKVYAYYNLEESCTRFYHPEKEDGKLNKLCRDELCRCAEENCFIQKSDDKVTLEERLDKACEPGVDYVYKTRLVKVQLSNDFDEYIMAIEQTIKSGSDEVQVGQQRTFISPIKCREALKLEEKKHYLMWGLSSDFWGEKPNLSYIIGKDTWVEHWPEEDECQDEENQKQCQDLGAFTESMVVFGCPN
C3b, sequence (P01024 23-667 limits assumed, chain 2 of 2): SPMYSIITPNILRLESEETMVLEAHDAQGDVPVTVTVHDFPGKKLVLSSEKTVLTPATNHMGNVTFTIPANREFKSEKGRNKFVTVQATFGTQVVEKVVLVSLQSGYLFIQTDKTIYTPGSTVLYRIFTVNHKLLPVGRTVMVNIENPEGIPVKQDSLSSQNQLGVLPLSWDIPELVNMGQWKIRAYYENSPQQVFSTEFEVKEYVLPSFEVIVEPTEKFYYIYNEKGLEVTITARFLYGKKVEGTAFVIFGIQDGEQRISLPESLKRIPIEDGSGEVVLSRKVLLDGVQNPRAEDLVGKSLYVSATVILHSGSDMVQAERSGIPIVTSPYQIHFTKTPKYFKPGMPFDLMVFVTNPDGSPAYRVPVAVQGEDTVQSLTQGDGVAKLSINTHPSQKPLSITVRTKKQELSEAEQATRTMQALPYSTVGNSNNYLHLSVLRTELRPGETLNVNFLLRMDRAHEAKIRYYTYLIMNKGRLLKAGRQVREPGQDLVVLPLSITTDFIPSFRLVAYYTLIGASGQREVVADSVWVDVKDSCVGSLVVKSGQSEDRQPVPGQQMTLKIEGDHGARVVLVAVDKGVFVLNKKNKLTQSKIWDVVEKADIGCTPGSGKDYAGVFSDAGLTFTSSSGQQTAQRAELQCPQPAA

Substance: histidine-tagged Smallpox Inhibitor of Complement Enzymes (SPICEhis) (from UniProt P68638 20-263)
- efficiency as cofactor in the degradation of C3b, against VCPhis [1]: 100 fold
- speed as cofactor in the degradation of C4b, against VCPhis [2]: 6 fold
